Measured values published in paper PMC7352787.

Key:
[1] = target: membrane-bound HLA-G*01:04 on K562 cells (human); assay: flow cytometry on cells; 1 x 10^6 K562 cells presenting HLA-G*01:0x incubated with 200 nM purified sNKG2A/CD94 or sNKG2C/CD94 for 2 h at 37 °C; detection by anti-V5-tag antibody and PE-coupled secondary antibody; three technical replicates
[2] = target: membrane-bound HLA-G*01:03 on K562 cells (human); assay: as above

percent binding (flow cytometry) [1]: 57.7%
percent binding (flow cytometry) [2]: 17.4%
Substance: recombinant soluble heterodimeric NKG2A/CD94 (from UniProt P26715 1-233; Q13241 1-179) (complex)
